For data set [1], the target named is human EphB2 full-length N482Q (human) (UniProt P29323).
Data set [2] deals with human EphB2 full-length Q472A/Y473A/E480A/Y481A (human) (UniProt P29323).
Data set [3] addresses human EphB2 full-length Y481E (human) (UniProt P29323).
Data set [4] deals with the molecule itself. In words: crystal structure; unliganded EphB2-ECD at 10 mg/mL in HBS, hanging drop at room temperature, 1.1 M Na Succinate, 0.1 M Na Acetate pH 4.8, 5% MPD, 3% 1,6-Hexanediol; 3.1 Å; head-to-tail contact between neighbouring molecules in the crystal.

We go through four molecules from article PMC8508685, “The Ephb2 Receptor Uses Homotypic, Head-to-Tail Interactions within Its Ectodomain as an Autoinhibitory Control Mechanism” (International Journal of Molecular Sciences, 2021).

Consider “human EphB2 full-length N482Q (from UniProt P29323 19-1055) (receptor)”, for which, in data set [1], the EphB2 phosphorylation in HEK293 cells after ephrin stimulation (anti-phosphotyrosine IP, anti-EphB2 blot), band intensity compared with the wild-type receptor (% higher than wild type) stood at 40.
In data set [2], “human EphB2 full-length Q472A/Y473A/E480A/Y481A (from UniProt P29323 19-1055) (receptor)” displayed an EphB2 phosphorylation in HEK293 cells after ephrin stimulation (anti-phosphotyrosine IP, anti-EphB2 blot), band intensity compared with the wild-type receptor (% higher than wild type) of 46.
Regarding “human EphB2 full-length Y481E (from UniProt P29323 19-1055) (receptor)”, the EphB2 kinase domain phosphorylation in HEK293 cells (anti-phosphotyrosine IP, anti-EphB2 blot), compared with the wild-type receptor (% lower than wild type) in data set [3] came to 56.

B1: mouse EphB2 extracellular domain (ECD) (residues 19-543) (domain or fragment, UniProt P54763 19-543, looked up)
chain: VEETLMDSTTATAELGWMVHPPSGWEEVSGYDENMNTIRTYQVCNVFESSQNNWLRTKFIRRRGAHRIHVEMKFSVRDCSSIPSVPGSCKETFNLYYYEADFDLATKTFPNWMENPWVKVDTIAADESFSQVDLGGRVMKINTEVRSFGPVSRNGFYLAFQDYGGCMSLIAVRVFYRKCPRIIQNGAIFQETLSGAESTSLVAARGSCIANAEEVDVPIKLYCNGDGEWLVPIGRCMCKAGFEAVENGTVCRGCPSGTFKANQGDEACTHCPINSRTTSEGATNCVCRNGYYRADLDPLDMPCTTIPSAPQAVISSVNETSLMLEWTPPRDSGGREDLVYNIICKSCGSGRGACTRCGDNVQYAPRQLGLTEPRIYISDLLAHTQYTFEIQAVNGVTDQSPFSPQFASVNITTNQAAPSAVSIMHQVSRTVDSITLSWSQPDQPNGVILDYELQYYEKELSEYNATAIKSPTNTVTVQGLKAGAIYVFQVRARTVAGYGRYSGKMYFQTMTEAEYQTSIKEKLPL
modifications: glycosylated at N265, N336, N428 and N482
notes: EphB2 (ephrin type-B receptor 2), mouse, extracellular domain (LBD, CRD, FN1, FN2), residues 19-543; also called EphB2-ECD; EphB2 ECD; not shown: Fc (human), C-terminal, cleaved
Turning to B1, the binding result in data set [4] was “binds”.
